Read-outs that look alike come from different tables or passages of the source. Non-standard residues stand in square brackets, D forms with d. Residues, ends and D or L forms follow the SMILES beside them. *: point of attachment. Dolaproine = CO[C@@H]([C@@H]1CCCN1)[C@@H](C)C(=O)O; Dil = CC[C@H](C)[C@H](NC)[C@@H](CC(=O)O)OC; X1 = C[C@@H](N*)[C@@H](O)c1ccccc1; NMeV = CN[C@H](C(=O)O)C(C)C
Columns and labels:
MIA PaCa-2 cells = assay: 72-h cytotoxicity (MTS), MIA PaCa-2; format: cell-based
Method: Cells were seeded in wells of a 96-well plate (6000 cells/well) and incubated overnight to allow for cell adherence. On the second day, 100 μL complete medium containing VcMMAE and Sgc8c-M (400, 200, 100, 50, 25, 12.5, and 6.25 nM), as well as MMAE (5, 2.5, 1.25, 0.625, 0.3125, 0.15625, and 0.078125 nM), were added to wells of a 96-well plate for an additional 72-h incubation at 37 °C. At the end of incubation, 100 μL of CellTiter 96® Aqueous One Solution Cell Proliferation Assay (MTS, Promega) solution (prepared by mixing 2 mL MTS with 9 mL of complete medium) were added to each well. The plates were then incubated for an additional 1–2 h to allow for the formation of formazan crystals. The absorbance of each well was measured at 490 nm using a Multi-Mode Microplate Reader (TECAN, SPARK) to assess cell viability. Cell viability was calculated as [OD490 (treatment) - OD490 (blank)]/[OD490 (nontreatment) - OD490 (blank)] × 100%.

MDA-MB-468 xenograft = assay: Antitumor efficacy, MDA-MB-468 xenograft; format: in vivo, mice; settings: free MMAE at equivalent dose (0.359 mg/kg i.v.)
Method: (§1) In vivo therapeutic evaluations were performed to evaluate the antitumor effects of the PTK7-targeted ApDC Sgc8c-M with comparisons made between the chemotherapeutic drug paclitaxel and the ApDC’s toxic payload MMAE in most cases. […] All tumor models were established on female BALB/c nude mice. Briefly, a 50 μL suspension of tumor cells (SUM159: 5 × 10^6, MDA-MB-468: 1 × 10^7, MIA PaCa-2: 5 × 10^6, OVCAR3: 5 × 10^6, HT-29: 5 × 10^6, NCI-H1975: 5 × 10^6, A549: 5 × 10^6) mixed with an equal volume of Matrigel (BD) was injected s.c. into the right hind flank region of mice. For the TNBC PDX and pancreatic cancer PDX F4 and F5 models, 3–5 mm^3 of tumor fragments were implanted into the right hind flank region of mice. When tumor sizes reached approximately 100 mm^3–300 mm^3, the mice were randomly divided into control and treatment groups. Sgc8c-M (i.v.), paclitaxel (i.p.), MMAE (i.v.), or ADC h6M24-VcMMAE (i.v.) were administered to tumor-bearing mice respectively, and tumor volume and body weight were measured every 2 to 4 days following the initiation of treatment. […] Tumor volume was calculated according to the following equation: Tumor volume = (tumor length × tumor width^2)/2. TGI (%) was calculated as follows: TGI (%) = [1 – (mean of tumor volume in the treatment group)/(mean of tumor volume in the saline group)] × 100.

[1] = design: method as in PMID 31877330; settings: cited from earlier work
SUM159 xenograft = assay: Antitumor efficacy, SUM159 xenograft; format: in vivo, mice; settings: 10 mg/kg i.p., Fig. 2c
Method: as §1

TNBC PDX = assay: Antitumor efficacy, TNBC PDX; format: in vivo, mice; settings: 10 mg/kg i.p.
Method: as §1

human PTK7 = target: T1, human PTK7 (Homo sapiens, UniProt Q13308); assay: SPR binding to recombinant human PTK7
T1 construct: His; purchased Sino Biological 19399-H08H
T1 sequence (Q13308 31-704 limits assumed): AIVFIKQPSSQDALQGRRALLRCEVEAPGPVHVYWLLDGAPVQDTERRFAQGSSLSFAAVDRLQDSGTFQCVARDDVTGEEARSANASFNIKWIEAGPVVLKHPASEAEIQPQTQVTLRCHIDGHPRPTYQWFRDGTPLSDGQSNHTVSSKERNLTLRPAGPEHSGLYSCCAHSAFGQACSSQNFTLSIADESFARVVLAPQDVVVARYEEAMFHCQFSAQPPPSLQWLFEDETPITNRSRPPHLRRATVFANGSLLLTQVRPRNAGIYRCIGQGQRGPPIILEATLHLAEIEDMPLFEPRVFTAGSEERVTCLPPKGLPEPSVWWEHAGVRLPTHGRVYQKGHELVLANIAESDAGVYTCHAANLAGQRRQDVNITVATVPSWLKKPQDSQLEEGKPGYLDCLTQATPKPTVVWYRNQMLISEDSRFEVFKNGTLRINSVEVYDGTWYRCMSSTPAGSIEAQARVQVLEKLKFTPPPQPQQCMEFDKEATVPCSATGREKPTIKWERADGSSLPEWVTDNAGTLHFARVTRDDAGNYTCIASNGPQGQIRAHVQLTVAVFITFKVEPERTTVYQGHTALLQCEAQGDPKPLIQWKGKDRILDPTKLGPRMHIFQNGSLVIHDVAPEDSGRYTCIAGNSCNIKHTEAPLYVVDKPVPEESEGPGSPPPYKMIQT
Source text: For SPR analysis, human (#19399-H08H, Sino Biological), mouse (HY-P78761, MCE), rat (HY-P78619, MCE), and cynomolgus monkey (#90979-C08H, Sino Biological) PTK7 proteins with His tags were immobilized on a carboxymethylated dextran CM5 chip on SPR (Cytiva Biacore 8 K). Sodium acetate buffer (NaAC) at pH 5.0/5.5 was used for human and cynomolgus monkey PTK7 proteins, while a pH of 4.5 was applied for mouse and rat PTK7 proteins. His protein was simultaneously immobilized on the CM5 chip as a control using pH 4.5 NaAC. The final concentration of all above proteins was 10 μg/mL. Unreacted carboxyl groups were subsequently deactivated using ethanolamine-HCl. Sgc8c were diluted to 25, 50, 100, 200, and 400 nM in running buffer (DPBS supplemented with 5 mM MgCl2), and Sgc8c-M and Ctrl-M were diluted to 400 nM. Sgc8c, Sgc8c-M, and Ctrl-M were sequentially injected over the immobilized surface from low to high concentrations for a 180-s association phase followed by a 180-s dissociation phase at a flow rate of 10 µL/min. The capture surface was regenerated after each cycle with a 30-s contact time of 1.5 M NaCl at a flow rate of 30 µL/min. The equilibrium dissociation constant (Kd) was subsequently analyzed by Biacore Insight Evaluation software.

PTK7 [2] = target: T2, PTK7 (rat, UniProt A0A8I6AKN3 23-696); assay: SPR; 5 mM Mg2+; Kd only in figure; SPR (Biacore 8K, CM5): DPBS + 5 mM MgCl2, 10 uL/min, 180 s association and dissociation; temperature and pH of running buffer not stated; settings: protein: commercial; tags: His
PTK7 [3] = target: T3, PTK7 (human, UniProt Q13308 31-704); assay: as above; settings: protein: commercial; tags: His
T3 sequence: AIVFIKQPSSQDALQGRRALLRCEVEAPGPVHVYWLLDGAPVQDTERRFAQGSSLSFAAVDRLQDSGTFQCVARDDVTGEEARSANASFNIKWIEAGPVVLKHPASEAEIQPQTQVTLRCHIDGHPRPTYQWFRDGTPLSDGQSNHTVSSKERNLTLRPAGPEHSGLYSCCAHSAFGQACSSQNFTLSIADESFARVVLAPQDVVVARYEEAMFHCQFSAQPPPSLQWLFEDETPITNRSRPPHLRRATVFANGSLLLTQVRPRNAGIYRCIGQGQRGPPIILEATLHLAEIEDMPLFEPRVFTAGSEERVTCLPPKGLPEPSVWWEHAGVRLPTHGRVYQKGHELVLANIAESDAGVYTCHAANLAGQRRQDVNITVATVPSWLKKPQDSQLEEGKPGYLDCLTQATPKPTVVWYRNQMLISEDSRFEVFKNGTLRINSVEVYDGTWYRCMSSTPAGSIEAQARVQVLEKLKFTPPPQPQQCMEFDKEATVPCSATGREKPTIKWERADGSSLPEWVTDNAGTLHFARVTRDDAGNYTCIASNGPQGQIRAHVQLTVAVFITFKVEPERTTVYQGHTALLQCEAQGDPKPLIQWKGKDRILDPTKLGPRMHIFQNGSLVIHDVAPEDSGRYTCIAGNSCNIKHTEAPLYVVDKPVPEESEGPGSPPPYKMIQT

PTK7 [4] = target: T4, PTK7 (mouse, UniProt Q8BKG3 23-696); assay: as above; settings: protein: commercial; tags: His
T4 sequence: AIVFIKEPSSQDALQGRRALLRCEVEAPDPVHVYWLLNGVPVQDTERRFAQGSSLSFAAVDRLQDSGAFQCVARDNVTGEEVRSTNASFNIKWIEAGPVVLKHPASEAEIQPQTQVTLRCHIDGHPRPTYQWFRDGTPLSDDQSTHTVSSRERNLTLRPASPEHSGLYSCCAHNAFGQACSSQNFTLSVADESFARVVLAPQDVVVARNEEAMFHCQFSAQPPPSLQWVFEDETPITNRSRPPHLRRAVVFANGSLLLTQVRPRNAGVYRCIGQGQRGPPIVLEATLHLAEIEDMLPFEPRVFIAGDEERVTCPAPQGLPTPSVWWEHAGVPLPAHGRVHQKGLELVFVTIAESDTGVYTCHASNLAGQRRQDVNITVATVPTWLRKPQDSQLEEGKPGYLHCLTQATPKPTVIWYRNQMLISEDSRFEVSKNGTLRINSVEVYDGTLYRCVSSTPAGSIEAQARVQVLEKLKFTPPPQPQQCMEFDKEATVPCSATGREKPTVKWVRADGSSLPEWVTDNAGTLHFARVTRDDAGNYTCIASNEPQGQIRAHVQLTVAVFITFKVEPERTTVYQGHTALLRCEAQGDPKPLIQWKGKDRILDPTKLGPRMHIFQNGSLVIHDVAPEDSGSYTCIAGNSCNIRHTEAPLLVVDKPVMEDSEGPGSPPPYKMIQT

PTK7 [5] = target: T2, PTK7; assay: SPR; 5 mM Mg2+; 400 nM; Kd only in figure; SPR (Biacore 8K, CM5): DPBS + 5 mM MgCl2, 10 uL/min, 180 s association and dissociation; temperature and pH of running buffer not stated; settings: protein: commercial; tags: His
PTK7 [6] = target: T3, PTK7; assay: as above; settings: protein: commercial; tags: His
PTK7 [7] = target: T4, PTK7; assay: as above; settings: protein: commercial; tags: His
PTK7 [8] = target: T3, PTK7; assay: SPR; 5 mM Mg2+; 400 nM; SPR (Biacore 8K, CM5): DPBS + 5 mM MgCl2, 10 uL/min, 180 s association and dissociation; temperature and pH of running buffer not stated; settings: protein: commercial; tags: His

## CC[C@H](C)[C@@H]([C@@H](CC(=O)N1CCC[C@H]1[C@H](OC)[C@@H](C)C(=O)N[C@H](C)[C@@H](O)c1ccccc1)OC)N(C)C(=O)[C@@H](NC(=O)[C@@H](NC)C(C)C)C(C)C [MMAE, monomethyl auristatin E] (H-[NMeV]V[Dil][Dolaproine]-X1)
MIA PaCa-2 cells; MIA PaCa-2
  IC50 lower than that of Sgc8c-M: approximately 48 fold
MIA PaCa-2 cells; MIA PaCa-2, 72-h incubation
  IC50: 0.389 nM
MDA-MB-468 xenograft
  TGI: 76%
[1]; single administration of 0.16 mg/kg
  mortality: 100%

## CC(=O)O[C@H]1C(=O)[C@@]2(C)[C@H]([C@H](OC(=O)c3ccccc3)[C@]3(O)C[C@H](OC(=O)[C@H](O)[C@@H](NC(=O)c4ccccc4)c4ccccc4)C(C)=C1C3(C)C)[C@]1(OC(C)=O)CO[C@@H]1C[C@@H]2O [paclitaxel]
SUM159 xenograft
  tumor growth relative to saline controls: partially reduced tumor growth
TNBC PDX
  tumor growth compared to saline controls: failed to significantly inhibit tumor growth

B1: h6M24-VcMMAE: PTK7-targeted ADC (DAR4): antibody of h6M24-vc0101 conjugated with the same MMAE payload (conjugate, chains of the INN, looked up)
VH: QVQLVQSGPEVKKPGASVKVSCKASGYTFTDYAVHWVRQAPGKRLEWIGVISTYNDYTYNNQDFKGRVTMTRDTSASTAYMELSRLRSEDTAVYYCARGNSYFYALDYWGQGTSVTVSS
VL: EIVLTQSPATLSLSPGERATLSCRASESVDSYGKSFMHWYQQKPGQAPRLLIYRASNLESGIPARFSGSGSGTDFTLTISSLEPEDFAVYYCQQSNEDPWTFGGGTKLEIK
modifications: vcMMAE payload, DAR4
Human PTK7
  Kd: 3.18 nM

## ATCTAACTGCTGCGCCGCCGGGAAAATACTGTACGGTTAGA (structured_DNA) [Sgc8c]
PTK7 [2]
  binding result: binds
PTK7 [3]
  binding result: binds
PTK7 [4]
  binding result: binds

## ATCTAACTGCTGCGCCGCCGGGAAAATACTGTACGGTTAGA (structured_DNA, 3'-C6-S-maleimide MC-VC-PAB-MMAE conjugate) [Sgc8c-M]
PTK7 [5]
  binding result: binds
PTK7 [6]
  binding result: binds
PTK7 [7]
  binding result: binds

## AGATTGGCATGTCATAAAAGGGCCGCCGCGTCGTCAATCTA (ssDNA, 3'-C6-S-maleimide MC-VC-PAB-MMAE conjugate) [Ctrl-M]
PTK7 [8]
  binding result: no binding

B2: Disitamab vedotin: clinically approved ADC, anti-HER2 antibody conjugated with MMAE (conjugate, chains of the INN, looked up)
VH: EVQLVQSGAEVKKPGATVKISCKVSGYTFTDYYIHWVQQAPGKGLEWMGRVNPDHGDSYYNQKFKDKATITADKSTDTAYMELSSLRSEDTAVYFCARNYLFDHWGQGTLVTVSS
VL: DIQMTQSPSSVSASVGDRVTITCKASQDVGTAVAWYQQKPGKAPKLLIYWASIRHTGVPSRFSGSGSGTDFTLTISSLQPEDFATYYCHQFATYTFGGGTKVEIK
modifications: MMAE payload
notes: clinically approved ADC, anti-HER2 antibody conjugated with MMAE
[1]; single injection of 18 mg/kg (approx. 0.35 mg/kg MMAE)
  mortality: 50%

— PMC12457637, “An aptamer-drug conjugate for promising cancer therapy with comprehensive evaluation from rodents to non-human primates” (Signal Transduction and Targeted Therapy, 2025)
